Data taken from patent publication US20130224190A1 (INTERNATIONAL DRUG DEVELOPMENT BIOTECH, published 2013).
Changes are numbered by the printed parent chain. Numbers in names are those of the source.

B1: chR005-1 Fc24 (antibody)
heavy: QVQLQQSGAELVRPGSSVKISCKASGYAFSSYWVNWMKQRPGQGLEWIGQIYPGDGDTNYNGKFKGRATVTADKSSSTSYMQFSSLTSEDSAVYFCARSITTVVGCAMDYWGQGTSVTVSSASTKGPSVFPLAPSSKSTSGGTAALGCLVKDYFPEPVTVSWNSGALTSGVHTFPAVLQSSGLYSLSSVVTVPSSSLGTQTYICNVNHKPSNTKVDKKVEPKSCDKTHTCPPCPAPELLGGPSVFLLPPKPKDTLMISRTPEVTCVVVDVSHEDPEVKFNWYVDGVEVHNAKTKPPEEQYNSTLRVVSLLTVLHQDWLNGKEYKCKVSNAALPAPIAKTISKAKGQPREPQVYTLPPSRDELTKNQVSLTCLVKGFYPSDIAVEWESNGQPENNYKTTPLVLDSDGSFFLYSKLTVDKSRWQQGNVFSCSVMHEALHNHYTQKSLSLSPGK
light: DIQMTQSSAYLSVSLGGRVTITCKASDHINNWLAWYQHKPGNAPRLLISGATTLETGVPSRFSGSGSGKDYTLSITSLQTEDVATYYCQQSWNTPWTFGGGTK
notes: Chimeric human IgG1 with variant Fc24 (F243L/R292P/Y300L/V305L/K326A/E333A/P396L against Fc0); also called chR005-1 Fc24 MAb; Fc24 optimized chR005-1 MAb; not shown: human light chain constant region
B2: chR005-1 Fc34 (antibody)
heavy: B1 heavy with A337E
light: B1 light
notes: Chimeric human IgG1 with variant Fc34 (F243L/R292P/Y300L/V305L/K326A/P396L against Fc0); also called chR005-1 Fc34 MAb; Fc34 LPLLAL; not shown: human light chain constant region

Molecular target: T1, human C1q (human, UniProt P02745 23-245; P02746 28-253; P02747 29-245)
T1 construct: The assay used recombinant human C1q (Abd Serotec, 0.2 ug/ml) or C1q from natural human complement (Sigma); It was detected with sheep anti-human C1q-peroxidase on plates coated with the MAb; also called recombinant human C1q; human complement
Assay: ELISA, C1q on coated MAb
Experimental: The binding of human recombinant C1q was assessed by an ELISA binding assay. […] Data represent mean+/−SD of two independent experiments.
Complement binding assay: The binding of human C1q to MAbs was assessed by an ELISA binding assay. The 96-well plates (Nunc) were coated overnight at 4° C. with varying MAb concentrations. After washing, the plates were blocked with PBS-5% BSA for 1 h, and incubated for 1 h with 0.2 μg/ml of recombinant human C1q (Abd Serotec) or 2.5 μl of natural human complement (Sigma). Then, 100 μl of a 1/500 dilution of sheep anti-human C1q peroxidase-conjugated Ab (Abd Serotec) added and incubated for 1 h. The plates were developed with 100 μl per well of TMB substrate (Uptima Interchim). After H₂S0₄ addition, the OD was measured at 450 nm/630 nm using a MRX II microplate reader.

T1 sequence (P02745 23-245 limits assumed, chain 1 of 3): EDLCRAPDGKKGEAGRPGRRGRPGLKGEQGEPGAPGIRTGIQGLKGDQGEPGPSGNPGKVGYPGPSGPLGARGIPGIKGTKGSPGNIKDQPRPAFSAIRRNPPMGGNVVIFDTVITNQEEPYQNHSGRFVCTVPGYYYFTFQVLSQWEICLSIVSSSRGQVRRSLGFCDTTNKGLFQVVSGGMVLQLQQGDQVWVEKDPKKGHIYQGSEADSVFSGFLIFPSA
T1 sequence (P02746 28-253 limits assumed, chain 2 of 3): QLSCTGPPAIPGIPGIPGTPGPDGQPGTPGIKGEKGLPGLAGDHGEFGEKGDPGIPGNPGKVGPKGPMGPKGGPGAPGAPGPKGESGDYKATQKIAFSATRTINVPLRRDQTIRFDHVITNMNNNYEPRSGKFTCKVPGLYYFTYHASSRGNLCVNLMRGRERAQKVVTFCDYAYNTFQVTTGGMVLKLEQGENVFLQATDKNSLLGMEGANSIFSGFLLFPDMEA
T1 sequence (P02747 29-245 limits assumed, chain 3 of 3): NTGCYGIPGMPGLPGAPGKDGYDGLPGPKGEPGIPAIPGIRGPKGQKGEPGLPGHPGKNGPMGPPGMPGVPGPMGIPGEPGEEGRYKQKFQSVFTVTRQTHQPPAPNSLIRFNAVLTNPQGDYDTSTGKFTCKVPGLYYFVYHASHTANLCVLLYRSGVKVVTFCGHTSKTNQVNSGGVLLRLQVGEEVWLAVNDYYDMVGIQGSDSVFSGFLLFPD

Binder	binding result
B1	binds
B2	binds
